Here are results for four molecules from patent US12163955B2, “Antibodies to methotrexate and uses thereof” (Ark Diagnostics, Inc., priority 2023, dated 2024).

Where “and” joins values, the source holds several entries; their conditions need not be identical. Equal values may be shown once.

In test [1] the test system is MTX antibodies. Kind of test: Specificity in absence of MTX, cross-reactivity (MTX Assay). It counts as binding, rabbit. Particulars: no MTX. The text has this: “Cross-reactivity” refers to the reaction of an antibody with an antigen that was not used to induce that antibody. “Cross-reactivity” may be determined in a quantitative immunoassay by establishing a standard curve using known dilutions of the target analyte. The standard curve is then used to calculate the apparent concentration of the interfering substance present in various known amounts in samples assayed under similar condition. The cross-reactivity is the apparent concentration divided by the actual concentration multiplied by 100.
[…] Solvent controls were also prepared and tested.
Cross-reactivity with DAMPA was also tested DAMPA stock solution was spiked into negative serum pool without the presence of MTX.

The subject of test [2] is MTX antibodies. The test is described as above. It counts as binding, rabbit. Particulars: Trimethoprim 150 μmol/L, Triamterene 25 μmol/L; for % Cross-reactivity: no MTX.
Test [3] can be described thus: Homogeneous enzyme immunoassay calibration curves with antibody clones and DAMP-Y-S-G6PDH conjugate. It counts as biochemical. Particulars: antibody 200.0 μL/g. Here is the method: MTX antibodies and enzyme conjugates may be advantageously used in accordance with the present disclosure in a homogeneous assay format to detect a MTX analyte in samples. Antibodies may be evaluated by known methods, such as, conjugate inhibition, conjugate modulation, calibration, cross-reactivity and spike-recovery. For these purposes, cloned antibodies (28H3-K1, 32H1-K2, 64H1-K1) is added into the antibody diluent to prepare the antibody reagent. The antibody reagent includes antibody as prepared above, buffer, salts, stabilizers, preservatives, NAD^+, and glucose-6-phosphate. Enzyme conjugate DAMP-Y-S-G6PDH is added into the conjugate diluent to prepare the enzyme conjugate reagent. The enzyme conjugate reagent includes the conjugate, buffer, stabilizers, salts, and preservatives.
A clinical chemistry analyzer useful to evaluate antibodies and enzyme conjugates in a homogeneous enzyme immunoassay format is the Beckman Coulter AU480 (Beckman Coulter, Brea, CA). The Beckman AU480 is an automated biochemistry spectrophotometer analyzer used by medical laboratories to process biological fluid specimens, such as urine, cerebrospinal fluid, oral fluids, plasma and serum. The analyzer is capable of maintaining a constant temperature, pipetting samples, mixing reagents, measuring light absorbance and timing the reaction accurately.
A homogeneous enzyme immunoassay is conducted using a liquid, ready-to-use, two reagent assay as described above. Typically, 2-15 μL MTX analyte-containing sample is incubated with 75-150 μL antibody reagent followed by the addition of the 50-100 μL enzyme conjugate reagent.
The assay is a homogeneous enzyme immunoassay technique used for the analysis of MTX in biological fluids. The assay is based on competition between MTX in the specimen and -MTX or MTX analog (DAMP derivatives of the current invention) labeled with the enzyme glucose-6-phosphate dehydrogenase (G6PDH) for antibody binding sites. Enzyme activity decreases upon binding to the antibody, so the drug concentration in the sample can be measured in terms of enzyme activity. Active enzyme converts nicotinamide adenine dinucleotide (NAD^+) to NADH, resulting in an absorbance change that is measured spectrophotometrically at 340 nm. […] The change in the absorbance at 340 nm can be measured spectrophotometrically and is proportional to the enzyme conjugate activity which in turn is related to analyte concentration (see FIG. 14).
MTX analyte antibodies and enzyme conjugate (DAMP-Y-S-G6PDH) were used in a homogeneous assay format to generate calibration curves using MTX standards as described in Example 12. Antibody reagents were prepared as described in Example 8 through 11 using DAMP-Y-KLH generated rabbit antibodies and cloned antibodies through B-cell. Enzyme conjugate DAMP-Y-S-G6PDH was used to prepare the conjugate reagent. A 6-point calibration curve was generated on the Beckman AU480 clinical chemistry analyzer as described in Examples 12. […]

Consider `CN(Cc1cnc2nc(N)nc(N)c2n1)c1ccc(C(=O)O)cc1` [DAMPA, 4-(((2,4-diaminopteridin-6-yl)methyl)(methyl)amino)benzoic acid], for which the “Apparent Conc.” value in the test on MTX antibodies [1] (DAMPA 0.04 μmol/L in negative serum pool) was 0.023 µmol/L; with MTX antibodies [1] (DAMPA 0.10 μmol/L in negative serum pool), 0.052 µmol/L; with MTX antibodies [1] (DAMPA 0.50 μmol/L in negative serum pool) it was 0.215 µmol/L; with MTX antibodies [1] (DAMPA 0.80 μmol/L in negative serum pool), 0.187 µmol/L; in the test on MTX antibodies [1] (DAMPA 1.00 μmol/L in negative serum pool), 0.188 µmol/L. Besides, the “% Cross-reactivity” value in the test with MTX antibodies [1] (DAMPA 0.04 μmol/L) was 57.50%; in the test with MTX antibodies [1] (DAMPA 0.10 μmol/L), 51.50%; in the test on MTX antibodies [1] (DAMPA 0.50 μmol/L), 42.93%; with MTX antibodies [1] (DAMPA 0.80 μmol/L), 23.42%; in the test with MTX antibodies [1] (DAMPA 1.00 μmol/L) it was 18.80%.
In the case of `Nc1nc(N)c2nc(-c3ccccc3)c(N)nc2n1` [Triamterene], in the test with MTX antibodies [2], the “No MTX Mean” value stood at 0.009 µmol/L and the “% Cross-reactivity” value was determined as 0.03%.
On to `COc1cc(Cc2cnc(N)nc2N)cc(OC)c1OC` [Trimethoprim], for which, in the test with MTX antibodies [2], the “No MTX Mean” value worked out at 0.000 µmol/L and the “% Cross-reactivity” value is recorded as 0.00%.

B1: 32H1/32K2: rabbit recombinant monoclonal antibody to MTX, VH SEQ ID NO: 9, VL SEQ ID NO: 13 (antibody)
VH: METGLRWLLLVAVLKGVQCQSLEESGGDLVKPGASLTLTCTASGLSFSSSDHWICWVRQAPGKGLESVGCIYIGSGTFVSSGTTYFASWAKGRSIISKTSSTTVTLQMTSLTAADTATYFCARGFYYTDGSGGPSYLNLWGQGTLVTVSSGQPKAPSVFPLAPCCGDTPSSTVTLGCLVKGYLPEPVTVTWNSGTLTNGVRTFPSVRQSSGLYSLSSVVSVTSSSQPVTCNVAHPATNTKVDKTVAPSTCSKPTCPPPELLGGPSVFIFPPKPKDTLMISRTPEVTCVVVDVSQDDPEVQFTWYINNEQVRTARPPLREQQFNSTIRVVSTLPITHQDWLRGKEFKCKVHNKALPAPIEKTISKARGQPLEPKVYTMGPPREELSSRSVSLTCMINGFYPSDISVEWEKNGKAEDNYKTTPAVLDSDGSYFLYNKLSVPTSEWQRGDVFTCSVMHEALHNHYTQKSISRSPGK
VL: MDTRAPTQLLGLLLLWLPGARCADIVMTQTPASVEAAVGGTVTIKCQASQTIYSYLSWFQQKPGQPPKLLIYSASTLASGVSSRFKGSRSGTESTLTISDLECADAATYYCQSYMYSSSSSFGSTFGGGTEVVVKGDPVAPTVLIFPPAADQVATGTVTIVCVANKYFPDVTVTWEVDGTTQTTGIENSKTPQNSADCTYNLSSTLTLTSTQYNSHKEYTCKVTQGTTSVVQSFNRGDC
As to B1, the Separation in test [3] (0.00 to 0.05 μM) is listed as 103.5 ΔmA/min; in test [3] (0.00 to 1.20 μM) it was 209.7 ΔmA/min; in test [3] (0.05 to 0.15 μM), 105.7 ΔmA/min; in test [3] (0.25 to 0.50 μM) it was −0.9 ΔmA/min; in test [3] (0.50 to 1.20 μM), 0.3 ΔmA/min. For the same molecule, the Absorbance in test [3] (Cals 0.00 μM) is 0.4007 and 0.3982; in test [3] (Cals 0.05 μM), 0.5023 and 0.5035; in test [3] (Cals 0.15 μM) it was 0.6091 and 0.6080; in test [3] (Cals 0.50 μM) it was 0.6084 and 0.6093; in test [3] (Cals 1.20 μM), 0.6108 and 0.6075. In addition, the “Average Rate” value stood at 399.45 mA/min in test [3] (Cals 0.00 μM); 502.90 mA/min in test [3] (Cals 0.05 μM); 608.55 mA/min in test [3] (Cals 0.15 μM); 608.85 mA/min in test [3] (Cals 0.50 μM); 609.15 mA/min in test [3] (Cals 1.20 μM).
